The values below come from publication PMC7746762.

For this test, the target named is FliC-NikRC flagellin variant (flagellin with its D3 domain replaced by the C-terminal Ni-binding domain of NikR) (S. typhimurium | E. coli) (UniProt P0A6Z6). Put plainly: dynamic light scattering; purified FliC-NikRC in solution; conditions not shown (Fig. S1 in the SI).

The stoichiometry N is the number of molecules, sites or subunits per partner or assembly. Substance “FliC-NikRC flagellin variant (flagellin with its D3 domain replaced by the C-terminal Ni-binding domain of NikR) (from UniProt P0A6Z6 50-133)” registered a stoichiometry N of 4.
